# From patent publication US20090155236A1, “Peptide sequence for modulation of delta protein kinase c” (NATIONAL INSTITUES OF HEALTH (NIH), U.S. DEPT OF HEALTH AND …, priority 2004, published 2009)
# What was measured:
# delta PKC = delta PKC (Rattus norvegicus, UniProt P09215); test: ELISA of annexin V peptide variants fused to alkaline phosphatase on immobilized delta PKC; format: binding; design: key to Binding: +++: Relative binding is shown in Table 1 by “+” and “−” indicators; ++: Relative binding is shown in Table 1 by “+” and “−” indicators; Relative binding is shown in Table 1 by “+” and “−” indicators; Relative binding is shown in Table 1 by “+” and “−” indicators; −−−: Relative binding is shown in Table 1 by “+” and “−” indicators; conditions: Table 1; for Binding: relative binding of peptide-alkaline phosphatase fusion to immobilized delta PKC
# Protocol: Binding of the annexin V peptide (SEQ ID NO: 1) and of variants of the peptide to delta PKC was examined using an ELISA protocol, detailed in Example 6. Delta PKC (SEQ ID NO:3) was immobilized in the wells of a microtiter plate and then incubated with the annexin V peptide conjugated to alkaline phosphatase or with variants of the annexin V peptide, also conjugated to alkaline phosphatase.
# Recombinant delta PKC protein (SEQ ID NO:3) was bound to a Falcon plate for 1 hour at room temperature in carbonate buffer pH 9.6. A 1:10-1:100 dilution of PKC enzyme from glycerol stock or 100 μg was prepared. β-mercaptoethanol at 1 μL/mL was added into the PKC. Each well contained approximately 100 μL of PKC; some wells without PKC were present to correct for non-specific binding.
# Next, all wells were blocked with 200 μL of super block or 0.5% milk in carbonate buffer. Blocking was done twice, for 5 minutes each time.
# Without washing the wells, 100 μL of a peptide fused to alkaline phosphatase protein (i.e., peptide-alkaline phosphatase fusion) was added to the wells, and incubated for 30 minutes at 37° C. The wells were then washed three times, for 2 minutes each time, with TBS/Tween (0.1%). The wells were allowed to develop overnight before reading absorbance at 405 nm.
# isolated rat hearts = test: Ex vivo ischemia/reperfusion in isolated rat hearts; conditions: administered after ischemia during the initial 10 minutes of reperfusion
# Protocol: The physiologic impact of disruption of the delta PKC-annexin V complex was evaluated in an ex vivo ischemia/reperfusion study using the annexin V peptide, TAT-AnxV, and its mutant, TAT-AnxV(R→E). As described in Example 7, isolated rat hearts were treated with TAT-AnxV or TAT-AnxV(R→E) for 10 minutes prior to induction of an ischemic episode. The ischemic episode lasted for 30 minutes, at which time flow to the heart was returned for 60 minutes (reperfusion). After the reperfusion period, cardiac effluent was collected and analyzed for creatine phosphokinase (CPK). The hearts were stained and visually inspected for live and dead tissue. Infarct size was measured by taking the average of the dead (white) tissue on both sides of the tissue slice.
# A similar study was conducted, except rather than pretreating the isolated hearts with the annexin V peptide, the peptide was administered after the ischemic event and during the initial 10 minutes of the reperfusion period. Hearts were similarly treated with the mutant peptide, TAT-AnxV(R→E).
# Rats were anesthetized and their hearts were rapidly removed and cannulated via the aorta for retrograde perfusion (Colbert, M. et al., J. Clin. Invest., 100:1958 (1997)). The hearts were left untreated, or were pretreated with the annexin V peptide, conjugated to TAT, (TAT-AnxV, SEQ ID NO:29) or with its mutant, TAT-AnxV(R→E) (SEQ ID NO:31), for 10 minutes prior to a 30 minutes of ischemia. Ischemia was induced by interrupting flow for 30 minutes and then reestablishing flow for 60 minutes (reperfusion). Cardiac effluent was collected for 15 minutes after reperfusion and assayed for creatine phosphokinase (CPK) using a Sigma kit. Hearts were stained with 2,3,5-triphenyltetrazolium chloride ([…]) to visualize live tissue (red) and dead tissue (white), and infarct size was measured by taking the average of the white area on both sides of the tissue slice (n=3, p<0.05). Results are shown in FIGS. 9A-9B and FIGS. 10A-10B.
# [1] = target: T1, annexin V and delta PKC interaction (Homo sapiens, UniProt Q05655); test: Cross-linking immuno-precipitation of delta PKC probed with anti-annexin V in cardiac myocytes; format: cell-based
# T1 construct: endogenous in cells; host or cells: cardiomyocytes
# Protocol: Example 4 describes a study where cardiac myocytes were stimulated with a selected agent and then immuno-precipitated with anti-delta PKC after cross-linking. The cell lysates were then probed with anti-annexin V and visualized with ECL Western blotting. […] The stimulation agent was applied to the cells for times of between 30 seconds to 20 minutes, prior to lysing.
# Cardiomyocytes were treated with phorbol 12-myristate 13-acetate (PMA; 10 nM), hydrogen peroxide (H2O2; 5 mM), JTV-519, or delta V1-1 peptide (1 μM) and JTV-519 (1 μM), for times of between 30 seconds to 5 minutes. After the lapsed time, the cells were washed with cold PBS, and homogenized on ice with trituration in homogenization buffer (20 mM Tris pH 7.4, 2 mM EDTA, 10 mM EGTA, 0.25M sucrose, 12 mM O-mercaptoethanol, and protease inhibitor cocktail (Sigma), 0.1% formaldehyde. After 30 min at 4° C., the lysates were quenched with 0.14M glycine for 20 min at 4° C., and samples spun at 14K rpm at 4° C. The supernatant was incubated with 1 μg anti-delta PKC antibody (Santa Cruz Biotechnology, Inc., Santa Cruz, Calif.) for 1 hour, then with proteinG beads (Invitrogen Corporation) for 3 hours at 4° C. The beads where then washed with wash buffer (20 mM Tris pH 7.5, 2 mM EDTA, 100 mM NaCl, 12 mM β-mercaptoethanol, 0.1% Triton), and separated on 7.5% SDS-PAGE, transferred to nitrocellulose, and probed with anti-annexin V (Santa Cruz Biotechnology, Inc., Santa Cruz, Calif.), followed by visualization by ECL Western blotting.
# [2] = target: T2, delta PKC-annexin V complex (Cricetulus griseus, UniProt A0A8C2N0P5+G3I5A4); test: Dissociation of delta PKC-annexin V complex in CHO cells; format: cell-based; conditions: CHO cells pretreated with the agent, then 10 nM PMA, FIG. 7
# T2 construct: endogenous in cells; host or cells: CHO cells
# Protocol: To determine the requirements for complex disassociation and subsequent translocation, PMA-induced formation of the delta PKC-annexin V complex was conducted under energetically limiting conditions caused by ATP depletion using 2-deoxyglucose (Kondo, T. et al., J. Lab. Clin. Med., 94:617-23 (1979)), and with cytoskeletal perturbations by pretreatment with actin […] agent cytochalasin D or microtubule-destabilizing agent nocodazole.
# CHO cells were pretreated with one of the following: (1) 2-deoxyglucose (20 mM) for 4 hours in a glucose-free buffer; (2) nocodazole (10 μM) for 2 hours; or (3) cytochalasin D (2 μM) for 1 hour. The cells were then treated with phorbol myristate acetate (PMA; 10 nM) for times of between 30 seconds to 5 minutes. After the lapsed time, the cells were washed with cold PBS, and homogenized on ice with trituration in homogenization buffer (20 mM Tris pH 7.4, 2 mM EDTA, 10 mM EGTA, 0.25M sucrose, 12 mM β-mercaptoethanol, and protease inhibitor cocktail (Sigma), 0.1% formaldehyde. After 30 min at 4° C., the lysates were quenched with 0.14M glycine for 20 min at 4° C., and samples spun at 14K rpm at 4° C. The supernatant was incubated with 1 μg anti-delta PKC antibody (Santa Cruz Biotechnology, Inc., Santa Cruz, Calif.) for 1 hour, then with proteinG beads (Invitrogen Corporation) for 3 hours at 4° C. The beads where then washed with wash buffer (20 mM Tris pH 7.5, 2 mM EDTA, 100 mM NaCl, 12 mM β-mercaptoethanol, 0.1% Triton), and separated on 7.5% SDS-PAGE, transferred to nitrocellulose, and probed with anti-annexin V (Santa Cruz Biotechnology, Inc., Santa Cruz, Calif.), followed by visualization by ECL Western blotting.
# [3] = target: T3, delta PKC/annexin V interaction (Cricetulus griseus, UniProt A0A8C2N0P5); test: Cross-linking co-immunoprecipitation of annexin V and delta PKC in CHO cells; format: cell-based
# T3 construct: endogenous in cells; host or cells: CHO cells
# Protocol: A similar study was conducted to further evaluate the in vitro, intracellular interactions of delta PKC and annexin V. Cellular interactions of delta PKC/annexin V interaction in CHO cells were stabilized with a cross-linking agent, after stimulation with 10 nM PMA. The complexes formed with delta PKC were then immuno-precipitated and tested for the presence of annexin V. The SDS-PAGE gel is shown in FIG. 6A and a corresponding graph quantifying percent association of annexin V and delta PKC as a function of time is shown in FIG. 6B. […] The interaction is relatively short-lived, and the proteins disassociated after 1 minute of stimulation.
# The effect of JTV-519, an activator of delta PKC, on the association of annexin V and delta PKC was also evaluated in this study. Cells were treated with JTV-519, and the association of annexin V and delta PKC was examined using the co-immunoprecipitation procedure described above. […] PMA caused the disassociation of the JTV-induced complex at 30 seconds, the time of maximal PMA-induced association. […] Whereas the cytosolic fraction of the cells contained a steady low level of the complex, the majority of the complex was found in the particulate fraction of the cells, and disappearance from the particulate fraction followed the same time-course as observed in whole cell lysates (compare FIG. 6D bottom panel with FIG. 6B).
# [4] = cardiac myocytes stimulated with the agent, FIG. 5
# T3 sequence (A0A8C2N0P5 1-676): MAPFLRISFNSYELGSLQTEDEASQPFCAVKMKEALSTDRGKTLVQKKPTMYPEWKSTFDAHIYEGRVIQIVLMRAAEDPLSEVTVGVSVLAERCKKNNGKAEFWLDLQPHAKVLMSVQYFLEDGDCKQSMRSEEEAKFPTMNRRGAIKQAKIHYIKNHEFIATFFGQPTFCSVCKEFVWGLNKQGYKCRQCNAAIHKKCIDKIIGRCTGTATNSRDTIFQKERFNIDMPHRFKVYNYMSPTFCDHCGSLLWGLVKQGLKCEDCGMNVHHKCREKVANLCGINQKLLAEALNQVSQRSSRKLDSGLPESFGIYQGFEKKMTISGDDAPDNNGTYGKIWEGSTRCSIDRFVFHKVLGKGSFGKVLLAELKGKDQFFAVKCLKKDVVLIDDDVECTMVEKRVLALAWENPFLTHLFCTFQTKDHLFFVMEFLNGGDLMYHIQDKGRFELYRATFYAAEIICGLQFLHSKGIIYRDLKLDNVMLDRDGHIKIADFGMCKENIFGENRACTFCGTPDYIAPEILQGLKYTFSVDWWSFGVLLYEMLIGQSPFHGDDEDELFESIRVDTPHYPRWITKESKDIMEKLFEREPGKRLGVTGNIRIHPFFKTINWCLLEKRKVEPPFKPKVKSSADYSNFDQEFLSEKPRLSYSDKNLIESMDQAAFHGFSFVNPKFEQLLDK
# T3 sequence (G3I5A4 1-321 partner): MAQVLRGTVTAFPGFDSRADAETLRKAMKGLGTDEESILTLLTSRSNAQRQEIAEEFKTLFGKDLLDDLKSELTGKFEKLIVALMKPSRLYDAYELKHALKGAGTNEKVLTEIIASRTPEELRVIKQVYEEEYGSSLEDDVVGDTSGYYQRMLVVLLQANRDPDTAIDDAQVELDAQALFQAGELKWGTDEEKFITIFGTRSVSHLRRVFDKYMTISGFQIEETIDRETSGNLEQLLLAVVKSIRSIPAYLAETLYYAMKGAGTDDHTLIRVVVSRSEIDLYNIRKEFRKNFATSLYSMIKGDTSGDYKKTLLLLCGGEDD
# T2 sequence (A0A8C2N0P5 1-676): as the sequence (A0A8C2N0P5 1-676) above
# T2 sequence (G3I5A4 1-321): as the sequence (G3I5A4 1-321 partner) above
# Chain of delta PKC (P09215 with tags, fused parts or gaps with the stated changes limits assumed): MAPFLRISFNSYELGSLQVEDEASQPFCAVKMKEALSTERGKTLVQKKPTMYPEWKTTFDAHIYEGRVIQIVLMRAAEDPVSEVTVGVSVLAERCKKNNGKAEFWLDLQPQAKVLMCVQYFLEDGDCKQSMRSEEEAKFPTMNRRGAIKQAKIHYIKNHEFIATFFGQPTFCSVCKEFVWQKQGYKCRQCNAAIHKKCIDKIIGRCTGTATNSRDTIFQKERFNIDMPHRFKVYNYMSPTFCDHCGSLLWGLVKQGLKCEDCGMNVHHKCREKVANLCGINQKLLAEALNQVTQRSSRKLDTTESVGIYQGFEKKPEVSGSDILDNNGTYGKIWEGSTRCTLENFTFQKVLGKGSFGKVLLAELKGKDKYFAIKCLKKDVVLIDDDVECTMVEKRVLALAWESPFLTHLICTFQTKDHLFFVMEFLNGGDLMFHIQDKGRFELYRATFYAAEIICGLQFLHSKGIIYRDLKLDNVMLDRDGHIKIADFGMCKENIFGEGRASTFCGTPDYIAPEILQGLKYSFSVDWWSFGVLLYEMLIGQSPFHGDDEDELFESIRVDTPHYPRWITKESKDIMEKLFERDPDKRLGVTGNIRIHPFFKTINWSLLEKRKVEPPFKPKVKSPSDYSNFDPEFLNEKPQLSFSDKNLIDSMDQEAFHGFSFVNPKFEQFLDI
# T1 sequence (Q05655 whole entry): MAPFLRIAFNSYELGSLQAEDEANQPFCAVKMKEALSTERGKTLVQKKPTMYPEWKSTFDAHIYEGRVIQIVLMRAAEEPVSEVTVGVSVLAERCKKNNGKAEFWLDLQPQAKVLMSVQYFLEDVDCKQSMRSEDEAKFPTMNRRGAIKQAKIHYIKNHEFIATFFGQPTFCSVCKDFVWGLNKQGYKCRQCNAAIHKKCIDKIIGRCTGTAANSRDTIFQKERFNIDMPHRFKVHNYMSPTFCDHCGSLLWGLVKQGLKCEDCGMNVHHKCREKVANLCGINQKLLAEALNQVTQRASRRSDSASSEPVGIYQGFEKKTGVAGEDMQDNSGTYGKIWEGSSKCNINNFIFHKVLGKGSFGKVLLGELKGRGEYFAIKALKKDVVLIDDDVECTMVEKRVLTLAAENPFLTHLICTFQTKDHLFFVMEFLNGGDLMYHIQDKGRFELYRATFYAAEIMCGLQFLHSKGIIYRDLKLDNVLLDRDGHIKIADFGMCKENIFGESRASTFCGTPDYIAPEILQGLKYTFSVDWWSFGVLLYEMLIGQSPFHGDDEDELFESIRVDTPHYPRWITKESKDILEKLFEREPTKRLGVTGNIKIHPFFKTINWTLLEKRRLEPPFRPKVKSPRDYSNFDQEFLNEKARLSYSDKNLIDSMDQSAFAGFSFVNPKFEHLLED
compound,measurement,setting,value
MRAAEDP (variant of SEQ ID NO1) [SEQ ID NO:18],Binding,delta PKC,++
MRAAENP (variant of SEQ ID NO1) [SEQ ID NO:13],binding to delta PKC,delta PKC,bind to delta PKC
same,Binding,delta PKC,+++
"LQANRDPD (listed as Homo sapiens) [SEQ ID NO:1, peptide from annexin V, residues 157-164]",infarct size,isolated rat hearts; FIG. 10A,no cardioprotective effect was observed
same,creatine phosphokinase (CPK) released,isolated rat hearts; FIG. 10B,does not confer a cardioprotective effect
delta V1-1 peptide: amino acid sequence from the first variable region of delta PKC (residues 8-17); peptide inhibitor of delta PKC (SFNSYELGS; listed as Rattus norvegicus),interaction of annexin V and delta PKC,"[1]; cardiac myocytes pre-treated with the peptide for 20 minutes, then JTV-519 for 20 minutes, FIG. 5 Lane 10",blocked
MRAAADP (variant of SEQ ID NO1) [SEQ ID NO:16],Binding,delta PKC,−−−
"OO [H2O2, hydrogen peroxide]",interaction of annexin V and delta PKC,[1]; [4],stimulated delta PKC to a greater extent than exposure for 2 minutes
MQAARDP (variant of SEQ ID NO1) [SEQ ID NO:12],binding to delta PKC,delta PKC,bind to delta PKC
same,Binding,delta PKC,+++
O=CC[C@@H](O)[C@H](O)[C@H](O)CO [2-deoxyglucose],disassociation of the delta PKC-annexin V complex,[2],substantial levels of the complex even after 5 minutes
C=C1[C@@H](C)[C@H]2[C@H](Cc3ccccc3)NC(=O)[C@]23[C@H](OC(C)=O)/C=C/[C@@](C)(O)C(=O)[C@@H](C)C/C=C/[C@H]3[C@@H]1O [cytochalasin D],disassociation of the delta PKC-annexin V complex,[2],did not affect the profile of disassociation
MRAAQDP (variant of SEQ ID NO1) [SEQ ID NO:14],binding to delta PKC,delta PKC,bind to delta PKC
same,Binding,delta PKC,++
"CCCCCCCCCCCCCC(=O)O[C@@H]1[C@@H](C)[C@@]2(O)[C@@H](C=C(CO)C[C@]3(O)C(=O)C(C)=C[C@@H]23)[C@@H]2C(C)(C)[C@]12OC(C)=O [PMA, phorbol 12-myristate 13-acetate]",interaction of annexin V and delta PKC,[1]; [4],Annexin V interacts with delta PKC early after stimulation
same,time of stimulation after which annexin V and delta PKC disassociated,"[3]; 10 nM PMA, FIGS. 6A-6B",1 min
same,time to induction of annexin V and delta PKC interaction,"[3]; 10 nM PMA, FIGS. 6A-6B",≤ 30 s
same,cellular localization of the delta PKC-annexin V complex,"[3]; soluble versus particulate fraction, FIG. 6D",maximum complex accumulation in the particulate fraction
COC(=O)Nc1nc2ccc(C(=O)c3cccs3)cc2[nH]1 [nocodazole],disassociation of the delta PKC-annexin V complex,[2],substantial levels of the complex even after 5 minutes
MEAAEDP (variant of SEQ ID NO1) [SEQ ID NO:15],binding to delta PKC,delta PKC,bind to delta PKC
same,Binding,delta PKC,+
MAAAEDP (variant of SEQ ID NO1) [SEQ ID NO:17],Binding,delta PKC,−
